Assay [1] concerns the target HPV16 E7 11-19 epitope (…) presented by HLA-A*02:01 (HPV16; human). The experiment in a line: cell-based or functional assay.
For assay [2], the target named is T1, HPV16 E7 peptide on HLA-A*02:01 (human).
T1 peptide: YMLDLQPET
Put plainly: multimer staining.

B1: CRTE7A2 TCR (variable regions fused to murine constant regions) (TCR, V domains shown)
V domain 1: RKEVEQDPGPFNVPEGATVAFNCTYSNSASQSFFWYRQDCRKEPKLLMSVYSSGNEDGRFTAQLNRASQYISLLIRDSKLSDSATYLCAVISAGTALIFGKGTTLSVSS
V domain 2: DAGVTQSPTHLIKTRGQQVTLRCSPKSGHDTVSWYQQALGQGPQFIFQYYEEEERQRGNFPDRFSGHQFPNYSSELNVNALLLGDSALYLCASSLGWRGGLYTEAFFGQGTRLTVVE
B1: the “activation level of the NFAT-GFP reporter gene in Jurkat cells co-incubated with peptide-loaded T2 cells (EC50)” value in assay [1] was 31 nM.

B2: CRTE7A2 (TCR, V domains shown)
Valpha: RKEVEQDPGPFNVPEGATVAFNCTYSNSASQSFFWYRQDCRKEPKLLMSVYSSGNEDGRFTAQLNRASQYISLLIRDSKLSDSATYLCAVISAGTALIFGKGTTLSVSS
Vbeta: DAGVTQSPTHLIKTRGQQVTLRCSPKSGHDTVSWYQQALGQGPQFIFQYYEEEERQRGNFPDRFSGHQFPNYSSELNVNALLLGDSALYLCASSLGWRGGLYTEAFFGQGTRLTVV
On to B2, for which, in assay [2], the binding result is on record as “recognises”.

(Values after patent US20240424101A1 (CORREGENE BIOTECHNOLOGY, published 2024).)
